From patent US20060281079
Read-outs that look alike come from different tables or passages of the source.

System: R2 protein (R2Bm reverse transcriptase/endonuclease) (Bombyx mori)
Sequence (chain, as listed by the source): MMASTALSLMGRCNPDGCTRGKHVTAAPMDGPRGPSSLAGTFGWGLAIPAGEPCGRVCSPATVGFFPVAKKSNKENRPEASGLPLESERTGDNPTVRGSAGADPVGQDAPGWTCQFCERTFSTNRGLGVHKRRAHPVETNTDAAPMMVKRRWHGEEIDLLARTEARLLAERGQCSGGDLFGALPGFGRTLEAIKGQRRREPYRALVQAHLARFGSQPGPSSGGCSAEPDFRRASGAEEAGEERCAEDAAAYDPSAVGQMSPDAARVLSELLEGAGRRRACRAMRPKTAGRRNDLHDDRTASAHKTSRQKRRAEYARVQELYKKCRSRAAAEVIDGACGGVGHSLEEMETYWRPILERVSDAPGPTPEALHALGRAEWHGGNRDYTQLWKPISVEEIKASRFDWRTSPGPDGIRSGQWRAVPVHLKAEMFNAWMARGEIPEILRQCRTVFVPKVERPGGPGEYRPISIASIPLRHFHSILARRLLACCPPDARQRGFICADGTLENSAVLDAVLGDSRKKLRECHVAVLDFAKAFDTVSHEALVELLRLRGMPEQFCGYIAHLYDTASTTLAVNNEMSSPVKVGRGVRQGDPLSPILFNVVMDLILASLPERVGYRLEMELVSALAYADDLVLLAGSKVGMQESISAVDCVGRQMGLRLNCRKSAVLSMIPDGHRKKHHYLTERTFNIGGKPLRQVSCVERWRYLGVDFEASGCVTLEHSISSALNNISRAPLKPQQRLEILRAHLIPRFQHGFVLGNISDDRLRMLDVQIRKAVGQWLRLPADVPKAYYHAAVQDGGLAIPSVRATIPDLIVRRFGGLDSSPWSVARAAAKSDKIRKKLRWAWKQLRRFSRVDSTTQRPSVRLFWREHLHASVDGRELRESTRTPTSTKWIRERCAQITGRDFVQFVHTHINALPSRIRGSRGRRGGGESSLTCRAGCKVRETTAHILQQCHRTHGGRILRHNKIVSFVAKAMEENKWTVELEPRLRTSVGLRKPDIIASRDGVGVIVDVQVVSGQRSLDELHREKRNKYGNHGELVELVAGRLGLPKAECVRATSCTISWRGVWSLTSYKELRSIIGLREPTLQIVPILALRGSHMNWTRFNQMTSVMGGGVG

183 nt vector RNA showed a binding signal (RNA-primed reverse transcription relative to 254 nt R2 RNA, template jumps 15.1%) of 0.7.

254 nt R2 3' UTR RNA gave a binding signal (RNA-primed reverse transcription without target DNA, template jumps 12.9%) of 1.

Substance 334 nt vector RNA has a binding signal (RNA-primed reverse transcription relative to 254 nt R2 RNA, template jumps 3.9%) of 0.44.
